From publication PMC2859858

These substances were tested against ProLabel-LEDGF fusion protein (UniProt O75475) (assay: chemiluminescent co-IP assay). Settings: 293T cells, 48 h after transfection; parent: est. 4700; read off a plot.
UniProt O75475, sequence (O75475 whole entry, the tested form may be a part): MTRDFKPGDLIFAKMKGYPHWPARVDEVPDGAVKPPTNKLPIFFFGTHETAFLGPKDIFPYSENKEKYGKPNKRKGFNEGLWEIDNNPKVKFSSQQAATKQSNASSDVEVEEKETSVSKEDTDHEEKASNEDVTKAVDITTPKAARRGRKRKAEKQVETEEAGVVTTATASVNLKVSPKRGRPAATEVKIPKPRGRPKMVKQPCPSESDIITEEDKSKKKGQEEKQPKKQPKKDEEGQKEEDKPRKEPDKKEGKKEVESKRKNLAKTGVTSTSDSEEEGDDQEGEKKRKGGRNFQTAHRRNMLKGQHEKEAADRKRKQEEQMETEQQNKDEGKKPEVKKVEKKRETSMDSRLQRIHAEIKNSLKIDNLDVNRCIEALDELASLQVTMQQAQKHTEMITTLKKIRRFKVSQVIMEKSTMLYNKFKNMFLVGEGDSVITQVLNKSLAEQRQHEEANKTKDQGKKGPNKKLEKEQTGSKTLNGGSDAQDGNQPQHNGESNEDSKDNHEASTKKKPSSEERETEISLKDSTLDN
With AcGFP1-IN wild type E170A; K173A the response was 1300 RLU.
AcGFP1-IN wild type E170A; H171A was tested, and the response was 50 RLU.
For AcGFP1-IN wild type H171A; K173A, the response was 250 RLU.
Substance AcGFP1-IN wild type H171A; L172A has a response of 130 RLU.
